Data taken from the Human Domainome abundance scans (Beltran et al. 2025).
± gives the uncertainty stated by the source.

B1: Dystrobrevin alpha, residues 235 to 294; numbered along this chain, Q9Y4J8 (parent)
chain: ENVFHPVECSYCHSESMMGFRYRCQQCHNYQLCQDCFWRGHAGGSHSNQHQMKEYTSWKS

Variants of: B1
Assay: abundance fitness (aPCA) (normalised: wild type 0, dead -1); higher = more abundant; growth selection in yeast, the domain comes from the species named
Conditions: Homo sapiens

Variant | abundance fitness
ENVFHPVECSYIHSESMMGFRYRCQQCHNYQLCQDCFWRGHAGGSHSNQHQMKEYTSWKS [C12I] | -1.1 ± 0.21
ENVFHPVECSYWHSESMMGFRYRCQQCHNYQLCQDCFWRGHAGGSHSNQHQMKEYTSWKS [C12W] | -1.27 ± 0.18
ENVFHPVECSYTHSESMMGFRYRCQQCHNYQLCQDCFWRGHAGGSHSNQHQMKEYTSWKS [C12T] | -0.868 ± 0.12
ENVFHPVECSYMHSESMMGFRYRCQQCHNYQLCQDCFWRGHAGGSHSNQHQMKEYTSWKS [C12M] | -1.11 ± 0.14
ENVFHPVECSYPHSESMMGFRYRCQQCHNYQLCQDCFWRGHAGGSHSNQHQMKEYTSWKS [C12P] | -1.29 ± 0.2
ENVFHPVECSYAHSESMMGFRYRCQQCHNYQLCQDCFWRGHAGGSHSNQHQMKEYTSWKS [C12A] | -0.883 ± 0.11
ENVFHPVECSYSHSESMMGFRYRCQQCHNYQLCQDCFWRGHAGGSHSNQHQMKEYTSWKS [C12S] | -1.17 ± 0.13
ENVFHPVECSYRHSESMMGFRYRCQQCHNYQLCQDCFWRGHAGGSHSNQHQMKEYTSWKS [C12R] | -0.768 ± 0.072
ENVFHPVECSYEHSESMMGFRYRCQQCHNYQLCQDCFWRGHAGGSHSNQHQMKEYTSWKS [C12E] | -0.997 ± 0.18
ENVFHPVECSYFHSESMMGFRYRCQQCHNYQLCQDCFWRGHAGGSHSNQHQMKEYTSWKS [C12F] | -1.23 ± 0.17
ENVFHPVECSYGHSESMMGFRYRCQQCHNYQLCQDCFWRGHAGGSHSNQHQMKEYTSWKS [C12G] | -0.762 ± 0.067
ENVFHPVECSYNHSESMMGFRYRCQQCHNYQLCQDCFWRGHAGGSHSNQHQMKEYTSWKS [C12N] | -0.746 ± 0.22
ENVFHPVECSYHHSESMMGFRYRCQQCHNYQLCQDCFWRGHAGGSHSNQHQMKEYTSWKS [C12H] | -0.549 ± 0.15
ENVFHPVECSYDHSESMMGFRYRCQQCHNYQLCQDCFWRGHAGGSHSNQHQMKEYTSWKS [C12D] | -0.939 ± 0.29
ENVFHPVECSYLHSESMMGFRYRCQQCHNYQLCQDCFWRGHAGGSHSNQHQMKEYTSWKS [C12L] | -1.22 ± 0.11
ENVFHPVECSYQHSESMMGFRYRCQQCHNYQLCQDCFWRGHAGGSHSNQHQMKEYTSWKS [C12Q] | -1 ± 0.18
ENVFHPVECSYKHSESMMGFRYRCQQCHNYQLCQDCFWRGHAGGSHSNQHQMKEYTSWKS [C12K] | -0.943 ± 0.14
ENVFHPVECSYVHSESMMGFRYRCQQCHNYQLCQDCFWRGHAGGSHSNQHQMKEYTSWKS [C12V] | -1.1 ± 0.1
ENVFHPYECSYCHSESMMGFRYRCQQCHNYQLCQDCFWRGHAGGSHSNQHQMKEYTSWKS [V7Y] | -0.161 ± 0.12
ENVFHPWECSYCHSESMMGFRYRCQQCHNYQLCQDCFWRGHAGGSHSNQHQMKEYTSWKS [V7W] | -0.072 ± 0.055
ENVFHPSECSYCHSESMMGFRYRCQQCHNYQLCQDCFWRGHAGGSHSNQHQMKEYTSWKS [V7S] | 0 ± 0.043
ENVFHPRECSYCHSESMMGFRYRCQQCHNYQLCQDCFWRGHAGGSHSNQHQMKEYTSWKS [V7R] | -0.036 ± 0.043

Variant | abundance fitness
ENVFHPTECSYCHSESMMGFRYRCQQCHNYQLCQDCFWRGHAGGSHSNQHQMKEYTSWKS [V7T] | -0.048 ± 0.077
ENVFHPVECMYCHSESMMGFRYRCQQCHNYQLCQDCFWRGHAGGSHSNQHQMKEYTSWKS [S10M] | -0.298 ± 0.1
ENVFHPVECTYCHSESMMGFRYRCQQCHNYQLCQDCFWRGHAGGSHSNQHQMKEYTSWKS [S10T] | -0.162 ± 0.065
ENVFHPVECPYCHSESMMGFRYRCQQCHNYQLCQDCFWRGHAGGSHSNQHQMKEYTSWKS [S10P] | -0.421 ± 0.11
ENVFHPVECYYCHSESMMGFRYRCQQCHNYQLCQDCFWRGHAGGSHSNQHQMKEYTSWKS [S10Y] | -0.343 ± 0.071
ENVFHPVECRYCHSESMMGFRYRCQQCHNYQLCQDCFWRGHAGGSHSNQHQMKEYTSWKS [S10R] | -0.476 ± 0.063
ENVFHPVECCYCHSESMMGFRYRCQQCHNYQLCQDCFWRGHAGGSHSNQHQMKEYTSWKS [S10C] | -0.018 ± 0.06
ENVFHPVECEYCHSESMMGFRYRCQQCHNYQLCQDCFWRGHAGGSHSNQHQMKEYTSWKS [S10E] | -0.394 ± 0.11
ENVFHPVECIYCHSESMMGFRYRCQQCHNYQLCQDCFWRGHAGGSHSNQHQMKEYTSWKS [S10I] | -0.588 ± 0.19
ENVFHPVECLYCHSESMMGFRYRCQQCHNYQLCQDCFWRGHAGGSHSNQHQMKEYTSWKS [S10L] | -0.693 ± 0.086
ENVFHPVECFYCHSESMMGFRYRCQQCHNYQLCQDCFWRGHAGGSHSNQHQMKEYTSWKS [S10F] | -0.351 ± 0.062
ENVFHPVECVYCHSESMMGFRYRCQQCHNYQLCQDCFWRGHAGGSHSNQHQMKEYTSWKS [S10V] | -0.746 ± 0.088
ENVFHPVECKYCHSESMMGFRYRCQQCHNYQLCQDCFWRGHAGGSHSNQHQMKEYTSWKS [S10K] | -0.592 ± 0.12
ENVFHPVECGYCHSESMMGFRYRCQQCHNYQLCQDCFWRGHAGGSHSNQHQMKEYTSWKS [S10G] | -0.443 ± 0.072
ENVFHPVECQYCHSESMMGFRYRCQQCHNYQLCQDCFWRGHAGGSHSNQHQMKEYTSWKS [S10Q] | -0.453 ± 0.11
ENVFHPVECNYCHSESMMGFRYRCQQCHNYQLCQDCFWRGHAGGSHSNQHQMKEYTSWKS [S10N] | -0.183 ± 0.11
ENVFHPVEYSYCHSESMMGFRYRCQQCHNYQLCQDCFWRGHAGGSHSNQHQMKEYTSWKS [C9Y] | -1.26 ± 0.18
ENVFHPVESSYCHSESMMGFRYRCQQCHNYQLCQDCFWRGHAGGSHSNQHQMKEYTSWKS [C9S] | -1.01 ± 0.1
ENVFHPVEFSYCHSESMMGFRYRCQQCHNYQLCQDCFWRGHAGGSHSNQHQMKEYTSWKS [C9F] | -1.25 ± 0.3
ENVFHPVELSYCHSESMMGFRYRCQQCHNYQLCQDCFWRGHAGGSHSNQHQMKEYTSWKS [C9L] | -1.22 ± 0.11
ENVFHPVENSYCHSESMMGFRYRCQQCHNYQLCQDCFWRGHAGGSHSNQHQMKEYTSWKS [C9N] | -1.06 ± 0.21
ENVFHPVEMSYCHSESMMGFRYRCQQCHNYQLCQDCFWRGHAGGSHSNQHQMKEYTSWKS [C9M] | -1.31 ± 0.42
